We go through 39 sequences from the supplement of paper PMC7877785.

± gives the uncertainty stated by the source.

The data set can be described thus: self-splicing fitness, log relative to wild type (ln ratio); higher = more splicing; Tetrahymena group I intron in knt gene, E. coli kanamycin selection, DiMSum; sequences stand for … in CUCUCU…GGAGGGAAAAGUUAUCAGGCAUGCACCUGGUAGCUAGUCUUUAAACCAAUAGAUUGCAUCGGUUUAAAAGGCAAGACCGUCAAAUUGCGGGAAAGGGGUCAACAGCCGUUCAGUACCAAGUCUCAGGGGAAACUUUGAGAUGGCCUUGCAAAGGGUAUGGUAAUAAGCUGACGGACAUGGUCCUAACCACGCAGCCAAGUCCUAAGUCAACAGAUCUUCUGUUGAUAUGGAUGCAGUUCACAGACUAAAUGUCGGUCGGGGAAGAUGUAUUCUUCUCAUAAGAUAUAGUCGGACCUCUCCUUAAUGGGAGCUAGCGGAUGAAGUGAUGCAACACUGGAGCCGCUGGGAACUAAUUUGUAUGCGAAAGUAUAUUGAUUAGUUUUGGAGUACUCGUGGUCG
An outline of the steps:
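DiMSum derived fitness as the error-weighted combination of fold changes across replicates, kanamycin versus no kanamycin, normalised to wild type. E. coli BL21(DE3) held the library, which randomised all eight P1ex-region intron nucleotides within the knt kanamycin-resistance gene on pET-22b(+). Six replicate transformations grew overnight at 37°C or 30°C on LB agar with or without 25 μg/mL kanamycin, also containing 100 μg/mL carbenicillin, 50 μM IPTG and 0.2% rhamnose, and pooled colonies were amplicon-sequenced on an Illumina HiSeq 2500.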

CAAUAGCAAUAUUACGCCAG: the “self-splicing fitness (ln)” value by setting is: (30 °C) -1.21 ± 0.12; (37 °C) -0.652 ± 0.15.

Regarding CCUUAGCAAUAUUACGUUUU, the “self-splicing fitness (ln)” value (30 °C) was -4.8 ± 0.31 and the “self-splicing fitness (ln)” value (37 °C) is -2.85 ± 0.28. The matching figures for AGCUAGCAAUAUUACGUUCA: -1.59 ± 0.12 and -0.979 ± 0.15. Taken in the same sequence, the figures for CCUGAGCAAUAUUACGUGGA were -3.5 ± 0.2 and -2.03 ± 0.18. Consider CUACAGCAAUAUUACGGACU, for which the “self-splicing fitness (ln)” value was -1.76 ± 0.17 (30 °C) and -1.75 ± 0.19 (37 °C). Turning to GUUUAGCAAUAUUACGACGG, the “self-splicing fitness (ln)” value runs as follows: (30 °C) -2.88 ± 0.25; (37 °C) -3.5 ± 0.47. Taken in the same sequence, the figures for AACGAGCAAUAUUACGAUGA were -3.91 ± 0.46 and -2.08 ± 0.22. The matching figures for AAGCAGCAAUAUUACGAAAC: -3.7 ± 0.4 and -1.8 ± 0.38. GUAAAGCAAUAUUACGGGAG: the “self-splicing fitness (ln)” value by setting is: (30 °C) -3.68 ± 0.25; (37 °C) -1.67 ± 0.14.

Take CGAUAGCAAUAUUACGAGGG: the “self-splicing fitness (ln)” value was -2.4 ± 0.15 (30 °C) and -2.14 ± 0.26 (37 °C). The matching figures for GUUCAGCAAUAUUACGUAUC: -0.532 ± 0.089 and -0.756 ± 0.1.

Turning to GAAAAGCAAUAUUACGGGAC, the “self-splicing fitness (ln)” value (30 °C) is -1.06 ± 0.12 and the “self-splicing fitness (ln)” value (37 °C) is -2.06 ± 0.18. The matching figures for CACCAGCAAUAUUACGGCCA: -0.747 ± 0.067 and -1.22 ± 0.082.

Take CCUGAGCAAUAUUACGUCAC: under “37 °C”, the “self-splicing fitness (ln)” value is -1.54 ± 0.31. Consider GGUCAGCAAUAUUACGACGA, for which the “self-splicing fitness (ln)” value runs as follows: (30 °C) -0.308 ± 0.072; (37 °C) 0.501 ± 0.11.

Regarding CACCAGCAAUAUUACGCGUC, the “self-splicing fitness (ln)” value is, setting by setting: (30 °C) -2.87 ± 0.15; (37 °C) -0.883 ± 0.12. Taken in the same sequence, the figures for UUUUAGCAAUAUUACGUCAA were -2.59 ± 0.17 and -1.34 ± 0.13. Taken in the same sequence, the figures for UUGAAGCAAUAUUACGAACU were -1.61 ± 0.21 and 0.568 ± 0.2.

As for AAUAAGCAAUAUUACGAAUU, the “self-splicing fitness (ln)” value (30 °C) was -1.93 ± 0.1 and the “self-splicing fitness (ln)” value (37 °C) is -1.58 ± 0.12. Consider AAUCAGCAAUAUUACGGCCU, for which the “self-splicing fitness (ln)” value runs as follows: (30 °C) 0.091 ± 0.13; (37 °C) 0.245 ± 0.15.

Take GGAGAGCAAUAUUACGAUUG: the “self-splicing fitness (ln)” value was -2.75 ± 0.26 (30 °C) and -2.17 ± 0.43 (37 °C). Consider GAUAAGCAAUAUUACGACAG, for which the “self-splicing fitness (ln)” value was -3.46 ± 0.24 (30 °C) and -1.89 ± 0.23 (37 °C). On to AAAUAGCAAUAUUACGCGAU, for which the “self-splicing fitness (ln)” value (30 °C) was -3.4 ± 0.2 and the “self-splicing fitness (ln)” value (37 °C) is -1.47 ± 0.14. The matching figures for AUCGAGCAAUAUUACGCAGU: -2.07 ± 0.23 and -1.85 ± 0.33. Consider AACGAGCAAUAUUACGGAAA, for which the “self-splicing fitness (ln)” value by setting is: (30 °C) -3.63 ± 0.23; (37 °C) -2.65 ± 0.24. As for CGUGAGCAAUAUUACGGCUG, the “self-splicing fitness (ln)” value is -0.246 ± 0.073 (30 °C) and 0.0364 ± 0.094 (37 °C). Consider UAGAAGCAAUAUUACGACGC, for which the “self-splicing fitness (ln)” value (30 °C) was -1.84 ± 0.33 and the “self-splicing fitness (ln)” value (37 °C) is -1.21 ± 0.24. Take ACAAAGCAAUAUUACGCCCA: the “self-splicing fitness (ln)” value runs as follows: (30 °C) -1.24 ± 0.11; (37 °C) -0.225 ± 0.13. Taken in the same sequence, the figures for ACGUAGCAAUAUUACGCUGC were -3.09 ± 0.34 and -1.44 ± 0.38. The matching figures for AGGAAGCAAUAUUACGCCAA: -1.65 ± 0.35 and -1.5 ± 0.31.

For the sequence CAUCAGCAAUAUUACGCCCA, the “self-splicing fitness (ln)” value was -2.9 ± 0.23 (30 °C) and -2.1 ± 0.21 (37 °C).

Consider CACGAGCAAUAUUACGGCGC, for which, for the setting “37 °C”, the “self-splicing fitness (ln)” value is -1.73 ± 0.4.

Turning to GGAGAGCAAUAUUACGAUUU, the “self-splicing fitness (ln)” value is -1.65 ± 0.24 (30 °C) and 0.185 ± 0.43 (37 °C).

UCCAAGCAAUAUUACGACAG: the “self-splicing fitness (ln)” value runs as follows: (30 °C) -3.81 ± 0.35; (37 °C) -1.47 ± 0.26. On to CGUGAGCAAUAUUACGGUAA, for which the “self-splicing fitness (ln)” value (37 °C) is -2.41 ± 0.25.

As to GCGCAGCAAUAUUACGUCCA, the “self-splicing fitness (ln)” value was -1.63 ± 0.12 (30 °C) and -0.0959 ± 0.18 (37 °C). Taken in the same sequence, the figures for GUCUAGCAAUAUUACGGUGA were -2.81 ± 0.25 and -0.385 ± 0.21. The matching figures for GACUAGCAAUAUUACGUGAC: -1.34 ± 0.085 and -1.39 ± 0.12. For the sequence CAACAGCAAUAUUACGCUGU, the “self-splicing fitness (ln)” value was -2.11 ± 0.2 (30 °C) and -2.65 ± 0.26 (37 °C).
